# Data published in patent US20140271457A1 (AbbVie / Abbott, published 2014).
# Substitutions are numbered along the chain they refer to.
# B1: AB399 (antibody, V domains shown)
# VH: EVQLVQSGAEVKKPGASVKVSCKASGYTFTSYWMHWVRQAPGQGLEWIGNINPKGGSNIYNEKFQGRVTMTRDTSISTAYMELSRLRSDDTAVYYCARLDYFGDSFDLWGQGTTVTVSS
# VL: DIQMTQSPSSLSASVGDRVTITCRASQGIRNYLNWYQQKPGKAPKLLIYYASNLEVGVPSRFSGSGSGTDYTLTISSLQPEDFATYYCQQDNRFPYTFGGGTKVEIKR
# notes: parent antibody
# B2: DVD3173 (bispecific antibody, IgG1)
# VH: EVQLVQSGAEVKKPGASVKVSCKASGYTFNNYGIIWVRQAPGQGLEWMGWINTYTGKPTYAQKFQGRVTMTTDTSTSTAYMELSSLRSEDTAVYYCARKLFNTVAVTDNAMDYWGQGTTVTVSSGGGGSGGGGSEVQLVQSGAEVKKPGASVKVSCKASGYTFTSYWMHWVRQAPGQGLEWIGNINPKGGSNIYNEKFQGRVTMTRDTSISTAYMELSRLRSDDTAVYYCARLDYFGDSFDLWGQGTTVTVSS
# VL: DIQMTQSPSSLSASVGDRVTITCRASQDIENYLNWYQQKPGKAPKLLIYYTSRLQSGVPSRFSGSGSGTDFTLTISSLQPEDFATYFCQQGNTQPPTFGQGTKLEIKRGGSGGGGSGDIQMTQSPSSLSASVGDRVTITCRASQGIRNYLNWYQQKPGKAPKLLIYYASNLEVGVPSRFSGSGSGTDYTLTISSLQPEDFATYYCQQDNRFPYTFGGGTKVEIKR
# notes: DVD-Ig; wt hIgG1 + kappa constants
# B3: DVD3116 (bispecific antibody, IgG1)
# VH: EVQLVQSGAEVKKPGASVKVSCKASGYTFNNYGIIWVRQAPGQGLEWMGWINTYTGKPTYAQKFQGRVTMTTDTSTSTAYMELSSLRSEDTAVYYCARKLFNTVAVTDNAMDYWGQGTTVTVSSASTKGPEVQLVQSGAEVKKPGASVKVSCKASGYTFTTYGVSWVRQAPGQGLEWMGEIYPGNYNTYYNEKFRGRVTMTTDTSTSTAYMELRSLRSDDTAVYYCARWRTSYFSDYGYFDYWGQGTTVTVSS
# VL: DIQMTQSPSSLSASVGDRVTITCRASQDIENYLNWYQQKPGKAPKLLIYYTSRLQSGVPSRFSGSGSGTDFTLTISSLQPEDFATYFCQQGNTQPPTFGQGTKLEIKRTVAAPSVFIFPPDVVMTQSPLSLPVTLGQPASISCRSSQSLVHSHGNTYLHWYQQRPGQSPRLLIYTVSNRFSGVPDRFSGSGSGTDFTLKISRVEAEDVGVYYCSQSTHVPYTFGGGTKVEIKR
# notes: as for B2
# B4: DVD2683 (bispecific antibody, IgG1)
# VH: EVQLVESGGGLVQPGGSLRLSCAASGFTFSNYGVTWVRQAPGKGLEWVSMIWADGSTHYASSVKGRFTISRDNSKNTLYLQMNSLRAEDTAVYYCAREWQHGPVAYWGQGTLVTVSSGGGGSGGGGSEVTLRESGPGLVKPTQTLTLTCTLYGFSLSTSDMGVDWIRQPPGKGLEWLAHIWWDDVKRYNPALKSRLTISKDTSKNQVVLKLTSVDPVDTATYYCARTVSSGYIYYAMDYWGQGTLVTVSS
# VL: DIQMTQSPSSLSASVGDRVTITCRASQLVSSAVAWYQQKPGKAPKLLIYWASARHTGVPSRFSGSGSGTDFTLTISSLQPEDFATYYCQQHYKTPFTFGQGTKLEIKRGGSGGGGSGDIQMTQSPSSLSASVGDRVTISCRASQDIRNYLNWYQQKPGKAPKLLIFYTSKLHSGVPSRFSGSGSGTDYTLTISSLQPEDIATYYCQQGLTPPLTFGGGTKVEIKR
# notes: as for B2
# B5: DVD2733 (bispecific antibody, IgG1)
# VH: B4 VH with T35E, M50G, S61D, S62T, G65S
# VL: B4 VL with R24K, A53T, R54L, K93R
# notes: as for B2
# B6: DVD2684 (bispecific antibody, IgG1)
# VH: EVQLVESGGGLVQPGGSLRLSCAASGFTFSNYGVTWVRQAPGKGLEWVSMIWADGSTHYASSVKGRFTISRDNSKNTLYLQMNSLRAEDTAVYYCAREWQHGPVAYWGQGTLVTVSSASTKGPEVTLRESGPGLVKPTQTLTLTCTLYGFSLSTSDMGVDWIRQPPGKGLEWLAHIWWDDVKRYNPALKSRLTISKDTSKNQVVLKLTSVDPVDTATYYCARTVSSGYIYYAMDYWGQGTLVTVSS
# VL: DIQMTQSPSSLSASVGDRVTITCRASQLVSSAVAWYQQKPGKAPKLLIYWASARHTGVPSRFSGSGSGTDFTLTISSLQPEDFATYYCQQHYKTPFTFGQGTKLEIKRTVAAPDIQMTQSPSSLSASVGDRVTISCRASQDIRNYLNWYQQKPGKAPKLLIFYTSKLHSGVPSRFSGSGSGTDYTLTISSLQPEDIATYYCQQGLTPPLTFGGGTKVEIKR
# notes: as for B2
# B7: DVD2734 (bispecific antibody, IgG1)
# VH: B6 VH with T35E, M50G, S61D, S62T, G65S
# VL: B6 VL with R24K, A53T, R54L, K93R
# notes: as for B2
# B8: AB398 (antibody, V domains shown)
# VH: EVQLVQSGAEVKKPGASVKVSCKASGYTFTTYGVSWVRQAPGQGLEWMGEIYPGNYNTYYNEKFRGRVTMTTDTSTSTAYMELRSLRSDDTAVYYCARWRTSYFSDYGYFDYWGQGTTVTVSS
# VL: DVVMTQSPLSLPVTLGQPASISCRSSQSLVHSHGNTYLHWYQQRPGQSPRLLIYTVSNRFSGVPDRFSGSGSGTDFTLKISRVEAEDVGVYYCSQSTHVPYTFGGGTKVEIKR
# notes: parent antibody
# B9: DVD3174 (bispecific antibody, IgG1)
# VH: EVQLVQSGAEVKKPGASVKVSCKASGYTFNNYGIIWVRQAPGQGLEWMGWINTYTGKPTYAQKFQGRVTMTTDTSTSTAYMELSSLRSEDTAVYYCARKLFNTVAVTDNAMDYWGQGTTVTVSSASTKGPEVQLVQSGAEVKKPGASVKVSCKASGYTFTSYWMHWVRQAPGQGLEWIGNINPKGGSNIYNEKFQGRVTMTRDTSISTAYMELSRLRSDDTAVYYCARLDYFGDSFDLWGQGTTVTVSS
# VL: DIQMTQSPSSLSASVGDRVTITCRASQDIENYLNWYQQKPGKAPKLLIYYTSRLQSGVPSRFSGSGSGTDFTLTISSLQPEDFATYFCQQGNTQPPTFGQGTKLEIKRTVAAPDIQMTQSPSSLSASVGDRVTITCRASQGIRNYLNWYQQKPGKAPKLLIYYASNLEVGVPSRFSGSGSGTDYTLTISSLQPEDFATYYCQQDNRFPYTFGGGTKVEIKR
# notes: as for B2
# B10: DVD3176 (bispecific antibody, IgG1)
# VH: B9 VH
# VL: DIQMTQSPSSLSASVGDRVTITCRASQDIENYLNWYQQKPGKAPKLLIYYTSRLQSGVPSRFSGSGSGTDFTLTISSLQPEDFATYFCQQGNTQPPTFGQGTKLEIKRTVAAPSVFIFPPDIQMTQSPSSLSASVGDRVTITCRASQGIRNYLNWYQQKPGKAPKLLIYYASNLEVGVPSRFSGSGSGTDYTLTISSLQPEDFATYYCQQDNRFPYTFGGGTKVEIKR
# notes: as for B2
# B11: AB397 (antibody, V domains shown)
# VH: EVTLRESGPGLVKPTQTLTLTCTLYGFSLSTSDMGVDWIRQPPGKGLEWLAHIWWDDVKRYNPALKSRLTISKDTSKNQVVLKLTSVDPVDTATYYCARTVSSGYIYYAMDYWGQGTLVTVSS
# VL: DIQMTQSPSSLSASVGDRVTISCRASQDIRNYLNWYQQKPGKAPKLLIFYTSKLHSGVPSRFSGSGSGTDYTLTISSLQPEDIATYYCQQGLTPPLTFGGGTKVEIKR
# notes: parent antibody
# Biological target: Recombinant Human IL-13 (human, UniProt P35225 35-146, limits assumed)
# Test: Biacore SPR
# Procedure: The BIACORE assay (GE, Healthcare Piscataway, N.J.) determined the affinity of antibodies or DVD-Ig with kinetic measurements of on-rate and off-rate constants. Binding of antibodies or DVD-Ig proteins to a target antigen (for example, a purified recombinant target antigen) was determined by surface plasmon resonance-based measurements with a Biacore T200 using running HBS-EP+buffer from GE Healthcare at 25° C. All chemicals were obtained from GE Healthcare or otherwise from a different source as described in the text. For example, approximately 5000 RU of goat anti-mouse IgG, (Fcγ), fragment specific polyclonal antibody (Pierce Biotechnology Inc, Rockford, Ill.) diluted in 10 mM sodium acetate (pH 4.5) was directly immobilized across a CM5 research grade biosensor chip using a standard amine coupling kit according to manufacturer's instructions. Unreacted moieties on the biosensor surface were blocked with ethanolamine. Modified carboxymethyl dextran surface in flowcell 1 was used as a reference surface. Rate constants were derived by making kinetic binding measurements at different antigen concentrations ranging from 0.8-100 nM. Binding was recorded as a function of time and kinetic rate constants were calculated. In this assay, association rate was evaluated for 5 min and dissociation was monitored for 10 min. For kinetic screening analysis, rate equations derived from the 1:1 binding model were fitted simultaneously to association and dissociation phases of all injections (using global fit analysis with Rmax fit locally to account for capture variations) with the use of Biaevaluation software. Purified antibodies or DVD-Ig proteins were diluted in HEPES-buffered saline for capture across goat anti-mouse IgG specific reaction surfaces. Antibodies or DVD-Ig proteins to be captured as a ligand were injected over reaction matrices at a flow rate of 5 μl/minute. The association and dissociation rate constants, kₒₙ (M⁻¹ s⁻¹) and koff (s⁻¹) were determined under a continuous flow rate of 50 μl/minute. Rate constants were derived by making kinetic binding measurements at different antigen concentrations ranging from 0.8-100 nM. Binding was recorded as a function of time and kinetic rate constants were calculated. In this assay, association rate was evaluated for 5 min and dissociation was monitored for 10 min.
# Chain of Recombinant Human IL-13 (P35225 35-146 limits assumed): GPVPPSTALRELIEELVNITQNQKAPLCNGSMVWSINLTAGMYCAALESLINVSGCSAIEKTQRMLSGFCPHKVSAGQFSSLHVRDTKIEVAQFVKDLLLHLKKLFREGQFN
Kd,koff,kon,Binder
0.019 nM,6.4e-05 s⁻¹,3.4e+06 M⁻¹ s⁻¹,B1
0.37 nM,8.8e-05 s⁻¹,240000 M⁻¹ s⁻¹,B2
< 0.017 nM,< 1e-06 s⁻¹,58000 M⁻¹ s⁻¹,B3
0.87 nM,5.9e-05 s⁻¹,68000 M⁻¹ s⁻¹,B4
1.1 nM,8.6e-05 s⁻¹,79000 M⁻¹ s⁻¹,B5
1.2 nM,5.9e-05 s⁻¹,48000 M⁻¹ s⁻¹,B6
0.82 nM,4.8e-05 s⁻¹,58000 M⁻¹ s⁻¹,B7
0.045 nM,2.8e-05 s⁻¹,630000 M⁻¹ s⁻¹,B8
0.9 nM,7.7e-05 s⁻¹,85000 M⁻¹ s⁻¹,B9
0.087 nM,4.8e-05 s⁻¹,550000 M⁻¹ s⁻¹,B10
0.13 nM,0.00012 s⁻¹,920000 M⁻¹ s⁻¹,B11
